Numbering of substitutions follows the chain as printed. Numbers in names are those of the source.
Key:
[1] = target: T1, human CD73 expressed at the cell surface (human, UniProt P21589 27-549); experiment: cell-based or functional assay
T1 sequence: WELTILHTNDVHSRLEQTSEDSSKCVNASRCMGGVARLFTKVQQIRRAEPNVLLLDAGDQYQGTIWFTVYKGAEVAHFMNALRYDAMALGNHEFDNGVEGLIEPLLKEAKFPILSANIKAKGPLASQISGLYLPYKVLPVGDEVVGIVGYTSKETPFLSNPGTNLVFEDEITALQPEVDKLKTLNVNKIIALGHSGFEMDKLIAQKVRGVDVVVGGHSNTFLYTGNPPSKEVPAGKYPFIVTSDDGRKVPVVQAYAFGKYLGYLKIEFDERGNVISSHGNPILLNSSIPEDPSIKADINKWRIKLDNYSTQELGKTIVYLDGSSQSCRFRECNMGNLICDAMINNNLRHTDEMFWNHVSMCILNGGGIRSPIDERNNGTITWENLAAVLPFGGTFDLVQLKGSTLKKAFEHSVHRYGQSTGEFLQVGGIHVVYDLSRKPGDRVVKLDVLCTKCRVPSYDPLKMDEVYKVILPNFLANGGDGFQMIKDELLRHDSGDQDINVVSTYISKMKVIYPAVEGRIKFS

[2] = target: T2, recombinant human CD73-His extracellular domain protein (soluble dimer) (human, UniProt P21589 27-547); experiment: cell-based or functional assay
T2 sequence: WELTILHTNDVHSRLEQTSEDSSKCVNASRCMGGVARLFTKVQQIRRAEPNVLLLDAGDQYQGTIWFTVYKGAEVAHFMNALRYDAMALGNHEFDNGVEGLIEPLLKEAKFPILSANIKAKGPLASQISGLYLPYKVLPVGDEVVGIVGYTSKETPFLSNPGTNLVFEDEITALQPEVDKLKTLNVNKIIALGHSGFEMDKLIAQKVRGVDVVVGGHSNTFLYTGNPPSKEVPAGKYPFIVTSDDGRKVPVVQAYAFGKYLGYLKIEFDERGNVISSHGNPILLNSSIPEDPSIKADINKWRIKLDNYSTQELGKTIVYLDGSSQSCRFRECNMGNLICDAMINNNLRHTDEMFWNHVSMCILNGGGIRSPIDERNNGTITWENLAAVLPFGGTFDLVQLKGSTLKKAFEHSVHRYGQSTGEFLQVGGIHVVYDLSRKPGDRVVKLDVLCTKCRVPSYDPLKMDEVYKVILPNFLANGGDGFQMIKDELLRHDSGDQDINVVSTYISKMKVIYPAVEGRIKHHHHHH

[3] = target: T1, human CD73 expressed at the cell surface; experiment: cell-based or functional assay; remark: listed apart in the source
[4] = target: T1, human CD73 expressed at the cell surface; experiment: cell-based or functional assay; remark: listed apart in the source
[5] = target: T2, recombinant human CD73-His …; experiment: ELISA, plate-coated recombinant human CD73
Method: 5 μg/ml of recombinant human CD73 protein (IPH, isoform E6) was coated on MaxiSorp ELISA plates (Nunc) in PBS, overnight at 4° C. Plates were washed 5 times in washing buffer (PBS, 0.05% Tween20) and unspecific sites were saturated by adding 200 μl/w TBS starting block buffer (Thermo Ficher). Dose-range of anti-CD73 antibodies were incubated for 2 h at 37° C. Plates were washed 5 times in washing buffer and HRP-coupled goat anti-human or goat anti-mouse IgG Fc fragment secondary antibody (Bethyl, 1/50000) was added for 1 hr at RT to detect bound anti-CD73 antibodies. […] The enzymatic reaction was stopped by adding HCl 1M and O.D. was measured at 450 nm. Optical density vs. anti-CD73 Ab concentration was plotted on graphs and EC50 is calculated using GraphPad Prism software.

[6] = target: T1, human CD73 expressed at the cell surface; experiment: flow cytometry on MDA-MB-231 cells, medium (no APCP)
Method: (§1) MDA-MB-231 cells are available from ATCC (reference HTB-26). 10⁵ cells resuspended in PBS/0.2% BSA/0.02% NaN3 (named “staining buffer”) are distributed into round bottom 96W-microplates. Dose-range of anti-CD73 antibodies was added to the plates and cells are incubated for 45 min at 4° C. Cells were washed three times in staining buffer by spinning plates at 400 g for 3 min at 4° C. PE-coupled goat anti-mouse or goat anti-human IgG Fc fragment secondary antibodies (Beckman Coulter) diluted in staining buffer were added to the cells and plates are incubated for 30 additional minutes at 4° C. Cells were washed three times as described above and analyzed on an Accury C6 flow cytometer equipped with an HTFC plate reader.
(§2) Cells were pre-incubated at 37° C. for 30 minutes in the presence or not of 200 μM adenosine 5′-(α,β-methylene)diphosphate (APCP), followed by addition of antibodies. APCP is an analog of ADP and binds irreversibly to the active site of CD73. When bound by APCP, CD73 changes conformation from an “open” conformation to a “closed” conformation. mAbs 11E1, 8C7, 3C12 and 6E1 bound MDA-MB-231 cells with good affinity both in the presence and absence of APCP. In the presence of APCP, the EC50 was similar to that observed in the absence of APCP. The plateau for maximal binding of 11E1, 8C7, 3C12 and 6E1 was higher in the absence of APCP than in the presence of APCP, while the inverse was true for AD2.

[7] = target: T1, human CD73 expressed at the cell surface; experiment: flow cytometry on MDA-MB-231 cells pre-incubated with 200 µM APCP
Method: as §1, §2

[8] = target: T1, human CD73 expressed at the cell surface; experiment: flow cytometry titration on MDA-MB-231 cells (endogenous CD73), median of fluorescence
Method: as §1
Median of fluorescence vs. antibodies concentration was plotted on graphs and EC50 is calculated using Graph Pad Prism program.

[9] = target: T1, human CD73 expressed at the cell surface; experiment: flow cytometry titration on a human-CD73-expressing recombinant host cell line, median of fluorescence
[10] = target: T3, mouse CD73 expressed on a recombinant host cell line (mouse, UniProt Q61503 29-551); experiment: flow cytometry titration on a mouse-CD73-expressing recombinant host cell line, median of fluorescence
T3 construct: whole, on cells; also called moCD73
T3 sequence (looked up): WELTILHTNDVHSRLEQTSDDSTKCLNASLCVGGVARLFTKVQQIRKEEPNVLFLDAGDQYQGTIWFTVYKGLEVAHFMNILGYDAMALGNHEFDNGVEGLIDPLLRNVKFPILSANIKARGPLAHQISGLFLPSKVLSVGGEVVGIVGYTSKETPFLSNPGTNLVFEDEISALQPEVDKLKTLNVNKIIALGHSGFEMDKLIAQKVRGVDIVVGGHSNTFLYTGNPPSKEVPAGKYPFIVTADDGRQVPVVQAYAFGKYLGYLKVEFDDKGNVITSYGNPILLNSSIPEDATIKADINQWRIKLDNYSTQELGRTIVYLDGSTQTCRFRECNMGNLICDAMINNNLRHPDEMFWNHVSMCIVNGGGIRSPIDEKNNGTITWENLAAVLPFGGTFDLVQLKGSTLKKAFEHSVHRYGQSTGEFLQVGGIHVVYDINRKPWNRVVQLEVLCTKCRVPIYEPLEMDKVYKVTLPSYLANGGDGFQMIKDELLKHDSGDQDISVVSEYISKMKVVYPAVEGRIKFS

[11] = target: T4, cynomolgus CD73 expressed on a recombinant host cell line (cynomolgus); experiment: flow cytometry titration on a cynomolgus-CD73-expressing recombinant host cell line, median of fluorescence
T4 construct: whole, on cells; also called cynoCD73

[12] = target: T5, human CD73 mutant 3 (human, UniProt P21589 27-549); experiment: flow cytometry titration on HEK293T cells transfected with human CD73 mutant 3, MFI PE
T5 construct: Transfected in HEK293T cells
T5 chain: T1 sequence with A73S, E103A, K107A, E108N, A109S

[13] = target: T1, human CD73 expressed at the cell surface; experiment: flow cytometry titration on HEK293T cells transfected with wild type human CD73, MFI PE

B1: antibody 8C7 (antibody, human IgG1, V domains shown)
VH: EVQLQQSGPELVKPGASVKVSCKASGYAFASYNMNWVKQSHGKSLDWIGYIDPYNGGSSYNLTFKGKATLTVDKSSTTAYMHLNSLTSEDSAVYYCARGYGNYKAWFAYWGQGTLVTVSA
VL: SIVMTPTPKFLLVSAGDRVTITCKASQSVSNDVAWYQQKPGQSPKLLIYYASTRYTGVPDRFTGSGYGTDFTFTISTVQAEDLAVYFCQQDYSSLTFGAGTKLELKR
notes: Produced as chimeric human IgG1 with heavy chain N297Q (Kabat EU numbering); RTVAAP)
With B1 the “decrease of the enzymatic activity of cellular CD73 (MDA-MB-231 cells)” value [1] was over 75%, the “EC50 for CD73 blockade (enzymatic activity of soluble recombinant human CD73-his)” value [2] was 1.29 µg/mL and the “EC50 for neutralization of the enzymatic activity of cellular CD73 (MDA-MB-231 cells, free phosphate from AMP)” value [3] was 0.319 µg/mL. The “EC50 for neutralization of 5'-ectonucleotidase activity, mean over MDA-MB-231, H292 and A375 cells” value [4] was 0.21 µg/mL, the “EC70 for neutralization of 5'-ectonucleotidase activity, mean over MDA-MB-231, H292 and A375 cells” value [4] was 0.46 µg/mL and the “EC100 for neutralization of 5'-ectonucleotidase activity, mean over MDA-MB-231, H292 and A375 cells” value [4] was 0.72 µg/mL. For the same binder, the EC50 [5] was 0.009 µg/mL, the EC50 [6] was 0.0903 µg/mL and the EC50 [7] was 0.143 µg/mL. The “EC50 (read off the curve)” value [8] was about 0.1 µg/mL, the “EC50 (read off the curve)” value [9] was about 0.1 µg/mL and the binding result [10] was “no binding (tested: about 30 µg/ml)”. The “EC50 (read off the curve)” value [11] was about 0.4 µg/mL.

B2: antibody AD2 (Biolegend, product ref. 344004) (antibody, V domains shown)
VH: EVQLQQSGAELVKPGASVKLSCTASGFNIKDTYIHWVKQRPEQGLEWIGRIDPATGNTEYDPKFQGKATITADTSSNTAYLHLSSLTSEDTAVYYCARGYYGSSYPPWFAYWGQGTLVTVS
VL: DIVMTQSHKFMSTSVGDRVSITCKASQDVGSAVAWYQQKPGQSPKLLIYWASTRHTGVPDRFTGSGSGTDFTLTISNVQSEDLADYFCQQYSSYPLTFGAGTKLELK
B2 was tested, and the EC50 [6] was 0.0629 µg/mL, the EC50 [7] was 0.0959 µg/mL and the “EC50 (read off the curve)” value [12] was about 0.1 µg/mL. The “EC50 (read off the curve)” value [13] was about 0.2 µg/mL.

— patent publication US20180030144A1 (INNATE PHARMA, published 2018)
